Where a chain is given by its changes, count along the chain named.
Legend:
Experiment in all cases: SPR Biacore, amount bound per captured antibody
[1] = molecular target: T1, human FcγRIIa type R extracellular domain with C-terminal His tag (human, UniProt P12318 34-217)
T1 sequence (looked up): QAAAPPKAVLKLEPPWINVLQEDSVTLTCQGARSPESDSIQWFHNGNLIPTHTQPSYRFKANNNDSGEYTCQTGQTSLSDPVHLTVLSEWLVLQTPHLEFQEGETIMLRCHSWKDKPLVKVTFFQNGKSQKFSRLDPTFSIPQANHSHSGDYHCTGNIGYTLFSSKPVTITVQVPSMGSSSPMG

[2] = molecular target: T2, human FcγRIIa type H extracellular domain with C-terminal His tag (human, UniProt P12318 34-217)
T2 sequence (looked up): T1 sequence (looked up) with R134H

[3] = molecular target: T3, human FcγRIIb extracellular domain with C-terminal His tag (human, UniProt P31994 43-217)
T3 sequence (looked up): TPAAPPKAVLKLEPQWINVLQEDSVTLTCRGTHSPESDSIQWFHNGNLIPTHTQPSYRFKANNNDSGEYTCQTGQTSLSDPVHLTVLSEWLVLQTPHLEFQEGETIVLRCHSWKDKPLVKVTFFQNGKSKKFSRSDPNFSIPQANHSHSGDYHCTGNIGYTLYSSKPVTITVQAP

[4] = molecular target: human FcγRIIIa type V extracellular domain with C-terminal His tag (human, UniProt P08637 17-208)
human FcγRIIIa type V extracellular domain with C-terminal His tag, sequence (P08637 17-208 F176V): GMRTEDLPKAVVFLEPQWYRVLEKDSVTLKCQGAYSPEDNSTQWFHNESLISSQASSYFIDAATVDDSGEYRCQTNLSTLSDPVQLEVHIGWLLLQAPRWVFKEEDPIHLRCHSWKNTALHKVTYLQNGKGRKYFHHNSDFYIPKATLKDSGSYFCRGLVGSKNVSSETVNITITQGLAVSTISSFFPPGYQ

[5] = molecular target: human FcγRIa extracellular domain with C-terminal His tag (human, UniProt P12314 16-292)
human FcγRIa extracellular domain with C-terminal His tag, sequence (P12314 16-292): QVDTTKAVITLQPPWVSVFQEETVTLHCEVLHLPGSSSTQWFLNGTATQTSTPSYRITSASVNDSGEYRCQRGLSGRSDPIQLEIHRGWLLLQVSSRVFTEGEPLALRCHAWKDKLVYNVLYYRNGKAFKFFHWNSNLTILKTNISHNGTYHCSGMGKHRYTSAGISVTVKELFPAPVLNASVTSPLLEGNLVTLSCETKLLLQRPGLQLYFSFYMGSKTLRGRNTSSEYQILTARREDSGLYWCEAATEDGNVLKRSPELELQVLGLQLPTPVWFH

relative binding activity [1]: 172 % of IL6R-BF648/IL6R-L
relative binding activity [2]: 116 % of IL6R-BF648/IL6R-L
relative binding activity [3]: 144 % of IL6R-BF648/IL6R-L
relative binding activity [4]: 103 % of IL6R-BF648/IL6R-L
relative binding activity [5]: 112 % of IL6R-BF648/IL6R-L
B1: IL6R-BP199/IL6R-L (antibody, human IgG1, kappa)
heavy: QVQLQESGPGLVKPSETLSLTCAVSGHSISHDHAWSWVRQPPGEGLEWIGFISYSGITNYNPSLQGRVTISRDNSKNTLYLQMNSLRAEDTAVYYCARSLARTTAMDYWGEGTLVTVSSASTKGPSVFPLAPSSKSTSGGTAALGCLVKDYFPEPVTVSWNSGALTSGVHTFPAVLQSSGLYSLSSVVTVPSSSLGTQTYICNVNHKPSNTKVDKKVEPKSCDKTHTCPPCPAPDLLGGDSVFLFPPKPKDTLMISRTPEVTCVVVDVSHEDPEVKFNWYVDGVEVHNAKTKPREEQYNSTYRVVSVLTVLHQDWLNGKEYKCKVSNAALPRPIEKTISKAKGQPREPQVYTLPPSRDELTKNQVSLTCLVKGFYPSDIAVEWESNGQPENNYKTTPPVLDSDGSFFLYSKLTVDKSRWQQGNVFSCSVMHEALHNHYTQESLSLSP
light: not shown
